How the values were obtained:
[1] = target: rabbit skeletal muscle actin (rabbit) (UniProt P68135); assay: ultrafiltration
[2] = target: rabbit skeletal muscle actin (rabbit) (UniProt P68135); assay: actin elongation rate at the barbed end

- Kd [1]: 2.3 µM
- Kd [2]: 22.5 µM
Substance: human platelet profilin (from UniProt P07737 1-140) (natural protein)
